Assay: yeast display, Sf9 membrane polyspecificity reagent, FACS + sequencing; frameworks hold sequencing errors
Summary of the method: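 Sorting gates, low and high (top ~1%), were placed on anti-HA fluorescence to track expression and on streptavidin fluorescence to track reagent binding. A clone's polyreactivity label is taken from the gate it came out of. The reagent was 10% biotinylated, detergent-solubilized Sf9 membrane, applied for 1 hour at 4 °C to galactose-induced yeast display cells.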

| Sequence | polyreactivity (PSR sort gate) |
| --- | --- |
| QVQLVESGGGLVQAGGSLRLSCAASGITFRYYAMGWYRQAPGKERELVATISWSGGSTYYADSVKGRFTISRDNAKNTVYLQMNSLKPEDTAVYYCNADWYRSAWSKYDYWGQGTQVTVSS | high polyreactivity |
| QVQLVESGGGLVQAGGSLRLSWAASGSFFKRNAMGSYRQAPGKEREFVAAITYNGGSTYYADSVKGRFTISRDNAMTTVYLQMNSLKPEDTAVYDCNNLYSRAQFRGGDYWAQGTQVTVSS | high polyreactivity |
| QVQLVESGGGLVQAGGSLRFSCAASGSTFIGYDMGWYRQEPGKERELVAAISYSDGTYYAESVKGRFTISRDNAKNTVYLQMNSLNPEDTAVYYCAADSLYYRYDYWGQGTQVTVSS | low polyreactivity |
| QVQLVESGGGLVQARGSLRLSCAASGSTFPYVMGWYRQAPWKERELVAAISQRTGSTYYADSVKGRFTISRDNAKNTVYLQMNSLNPEDTAVYYCAKPGYLRPSRYDYWGQGTQVTVSS | high polyreactivity |
| QVQLVESGGGLVQAGGSLRLSCASSGRTFGTNTMGWYRQAPGKERELVAAISRSGVRTYYADSVKGRFTISRDNAKNTVYLQMKSLKAEDTAVYYCATDYKVHGFDYWGQGTQVSVSS | high polyreactivity |
| QVQLVESGGRLVEAGGSLRLSCAASGRTIPAYALGWYRQAPGKERELVAGISYRGGSTYYADSVKGRFTISRDKAKNTVYLPMNSLKPEDTAVYYCARVYSRNKGVYWGQGTQVPVSS | low polyreactivity |
| QVQLVESGGGLVQAGGSLRLSCAASGRIFIWYAMGWYRQAPGKERELVAAIDRSGASTYYADSVKGRFTISRDNAKNTVYLQMNSLKPEDTAVYYCAARRDVLWFQYPYGYWGQGTQVTVSS | low polyreactivity |
| QVQLVESGGGLVQAGGSLRLSCAASGRIFNANAMGWYRPAPGKESELVAAISSSGGSTYYSDSVKGRFTISRDNAKNTVYLHMNSLKPEDTAVYYCKDEWGWRYSSDFDYWGQGTQVTVSS | low polyreactivity |
| QVQLVESGGGLVQAGGSLRISCAASGRIFYFNTMGWYRQAPGKERELVAAISLSGGRTYYADSVKGRFTISRDNAKNTVYLQMNSLKREDSAVYYCNAVARSRSRDTSKGDYWGQGTQVTVSS | high polyreactivity |
| QVQLVESGGGKVQAGGSLRLSCAASGRIFYLNAMGWYRQAPGKEREFVAAITRNGGNTYYADSVKGRFTISRDNAKNTVYLQMNSLKPEDTAVYYCNAKYWPFSRWYYYWGQGTQVTVSS | high polyreactivity |
| QVQLVESAGGLVQAGGSLRLSCAASGSIFTYYAMGWYIQAPGKERELVAAISSDGGRTFYADSVKGRFTISRDNAKNTVYLQMNSLKPEDTAVYYCAAETNRFPGYGYWGQGTQVTVSS | low polyreactivity |
| QVQLVESGGGLVQAGGSLRLSCAASGRIFGPYAMGWYRQAPGKERELVAAISFSGSGTYYADSVKGRFTISRDNAKNTVYFQMNSLKPEDTAVYYCAATSRKIVAYDHDYWGQGTQVTVSS | low polyreactivity |
| QVQLVESGGGLVQAGGSLRLSCAASGRTFRPYAMGWYRQAPGKERELDAAIDSSGTSTYYADSVKGRFTISRDNAKNTVYLQMNSLKPEDTAVYYCAKAWPDHWFSRYDYWGQGTQVTVSS | low polyreactivity |
| QVQLVESGGGLVQAGGSLRLSCAASGFNFRYNTMGWYRKAPRKERELVAAISVSGARTYYADSVKGRFTISRDNAKNTVYLQMNSLKPEDTAVFYCNRRYTFYSRYNNDYWGQGTQVTVSS | high polyreactivity |
| QVQLVESGGGLVQAGGSLRLSCAASGFTIGDYAMGWYRQAPGKERELVAAITYSGGSTYYADSVKGRFTISRDNAKNTVYLQMNSLKPEDTAVYYCNADYASQSGYDYWGQGTQVTVSS | low polyreactivity |
| QVQLVESGGGLVQAGGSLRLSCAASGRTISRNAMGWYRQAPGTERELVASISRSGGSTYYADSVKGRFTISRDNAKNTVYLQMNSLKPEETAVYYCAASYWHRRYDYWGQGTQVTVSS | high polyreactivity |
| QVQLVESGGGLVQAGGSLRLSCAASGSIFNSNAMGWYRQAPGKERELVAAITGSGGRTYYADSVKGRFTISRDNAKNTVYLQMNSLKPEDTAVYYCNAVTYSRRYAYYYWGQGTQVTVSS | high polyreactivity |
| QVHLVESGGGLVQAGGSLRLSCAASGIIFEYNAMGWYRQAPGKERELVAAITSTDNTNYADSVKGRFTISRDNAKKTVYLQMNILIPEDTAVYYCNTDYWLSVVYAMDYWGQGTQVTVSS | low polyreactivity |
| QVQLVESGGGLVQAGGSLRLSCAASGSTFGNAMGWYTQAPGKEREWVAAISSRGDRTYYADSVKGRFTISRDNAKNTGYLQMNSLKPEDTAVYYCAKDGYPNKYDYWGQGTQVTVSS | high polyreactivity |
| QVQLVESGGGLVQAGGSLRLSCAASGRTFPGYAMGWYRQAPGKERELVAAITSSGDDTYYADSVKGRFTISRDNAKNTVYLQMNSLKPEDTAVYYCRLFRRSADSSYDYEYWGQGTQVTVSS | low polyreactivity |
| QVQLVESGGGLVQAGGSLRLSCAASGSTFNHYTMGWYRQAPGKERELVAAISSRGGGTYYADSVKGRFTISRDNAKNTVYLQMNSLKPEDTAVYYCAALISSGIRHSRDYWGQGTQVTVSS | high polyreactivity |
| QFQLVESGGGLVQAGGSLRLSCAASGFTFDGYAMGWYRQAPGKERELVAAISDSGDSTYYADSVKGRFTISRDNAKITVYLQMNSLKPEDTAVYYCAAGLGYYWSDYFAYDYWGQGTQVTVSS | low polyreactivity |

| Sequence | polyreactivity (PSR sort gate) |
| --- | --- |
| QVQLVESGGGLVQAGGSLRLSCAASGRTILVYAMGWYRPAPGKERELVAAISSDGSTNYADSVKGRFTISRDNAMNTVYLQMNSLNPEDTAVYYCARDYYAVSYLYDYWGQGTQVTVSS | low polyreactivity |
| QVQLVESGGGLVQAGGSLRLSCAASGRTLGANAMGWYRQAPGKEREFVAAISYSDTRTYADSVKGRFTISRDNAKNTVYFQMNSLKPEDTAVYYCAADYYTWYGILYDYWGQGTQVTVSS | low polyreactivity |
| QVQLVESGGGLVQAGGSLRLSCAASGSIIDRYAMGWYRQAPGKERELVAAISYSGGRTYYADSVKGRFTISRDNAKNTVYLQMNSLKPEDTAVYYCAADSPYDEYDYWGQGTQVTVSS | high polyreactivity |
| QDQLVESGGGLVQAGGSLRLSCAASGIIFGAYAMGWYRQAPGKERELVAAISQSGGSTYYADSVKGRFTISRDNAKITVYLQMNSLKPEDTAVYYCNVDPDVILVTSYDYWGQGTQVTVSS | low polyreactivity |
| QVQLVESGGGLVQAGGRLRLSCAASGRIFIYYAMGLYRQAPGKERELVAAISWGGGRTYYADSVKGRFTISRDNAKNTVYLQMNSLKPEDTAVYYCAAGVYTGQHEYDYWGQGTQVTVSS | low polyreactivity |
| QVQLVESGGGLVQAGGSLRLSCAASGSTVVIKAMGWYRQAPGKERELVARISSSGGRTYYADSVKGRFTISRDNAKNTVYLQMNSLKPEDTAVYYCAKRGYLFLRGSVRVGYNYWGQGTQVTVSS | low polyreactivity |
| QVQLVESGGGLVQAGGSLRLSCAASGFIFLVNAMGWYRGAPGKERELVAAISKSTGGTYYADSVKGRFTISRDNAKNTVYLQMNSLKPEDTAVYYCAADEVYPVQRDMDYWGQGTQVTVSS | low polyreactivity |
| QVQLVESGGGLVQAGGSLRLSCAASGFTFDDYVMGWYRQAPGKERELVAAISRSGGSTYYADSVKGRFTISRDNAKNTVYLQMNSLKPEDTAVYYCAARTYSWGDWGQGTQVTVSS | high polyreactivity |
| QVQLVESGGGLVQAGGSLRLSCAASGRTFTSNGMGWYRQAPGKERELVAAITSGTSTYYADSVKGRFTISRDNAKNPVYLQMNSLKPEDTAVYYCNKLVPRGSSYSTVIRGGGYWGQGTQVTVSS | high polyreactivity |
| QVQHVESGGGLVQAGGSLRLSCAASGRTFWTNALGWYRQAPGKEREFVGAISWRGASTFYADSVKGRFTISRDHAKNTVYLQMTSLKPEDTAVYDCAAQSRTRSFYGKFDSWGQGTQVTVSS | low polyreactivity |
| QVQLVESGGGLVQAGGSRRLICAASGRIYYYMGWYRQEPGQERELVAASTSSGVSTYYADSVKGRFTISRDNAKNTVDLQMNSLKPEDTAVYYCAAERVYIFWFTHEIFKYWGQGTQVTVSS | high polyreactivity |
| QVQLVETGGGIVQAGGSLRLSCAASGFTFFRNAMGWYRQAPGKERELVAAISGSGGSTYYADSVKGRFTISRDNAKNKVYLQMNSLKPEDTAVYYCNAQKQIREPGNERLNYWGQGTQVTVSS | low polyreactivity |
| QVQLVESAGGLVQAGGSLRLSCAASGRTLSNYAMGWYREAPGKERELVAVISQSGGRTYYADSVKGRFTISRDNAKNTVYLQLNSLKPEDTAVYYCNVDISWLRRKFDYWGQVTQVTVSS | low polyreactivity |
| QVQLVESGGGLVQAGGSLRLSCAASGSTFVYNAMGWSRQAPGKERELVAVITYRGGRTYYADSVKGRFTISRDNAKNTVYLQINSLKPEDTAVYYCAKRVYGSKVRGYDYWGQGTQVTVSS | high polyreactivity |
| QVQLVESGGGLVQAGGSLRLSCAASGSTFWYNAMGWYRQAPGKERELVAAISASGGSTYYADSVKGRFTISRDNAKNTVYLQMNSLKPEDTAVYYCAAGSFWGYSRYRTYYGFDYWGQGTQVTVSS | high polyreactivity |
| QVQLVESGGGLVQAGGSLRLSCAASGFTFQYYAMGWYRQAPGKERELVAAISRSGGSTYYADSVKGRFTISRDNAKNTVYLQMNSLKPEDTAVYYCNAGRYASGKYDYWGQGTQVTVSS | high polyreactivity |
| QVQLVESGGGLVQAGGSLRLSCAASGFTFRRYAMGWYRQAPGKERELVAAISNGGSTYYADSVKGRFTISRDNAKNTVYLQMNSLKPEDTAVYYCAADIYSYFWWPYYYWGQGTQVTVSS | high polyreactivity |
| QVQLVESGGGLVQAVGSLRLSCAASGRTFGNYAMGWYRQAPGKERELVAAISRSGASTYYADSVKGRFTISRDNAKNSVYLQMNSLKPEDTAVYYCAARVLKPFKYGYWGQGTQVTVSS | high polyreactivity |
| QVQLVESGGGIVQAGGSLRISCAASGYTFKWYDMGWYRQAPGKEWELVASISWRGGSTYYADSVKGRYTISRDNAKNTVYFQMNSLKPEDTAVYYCAASLWPDYEYDYWGQGTQVTVSS | low polyreactivity |
| QVQLVESGGGLVQAGGSLRLSCAASGITFYTYAMGWYRQAPGKERELDAAITCSGGRTYYADSVKGRFTISRDNAKNSVYLQMNSLKPEDTAVYYCAALYVYRPRTPYGYWGQGTQVNVSS | high polyreactivity |
| QVQLVESGGGLVQAGGSLRLSCAASGRTFYNAMGWYRQAPGKERELVAGIRWSGASTYYADSVKGRFTISRDNAKNTVYLQMNSLKPEDTAVYYCAARRHSTRLRLTYDYWGQGTQVTVSS | high polyreactivity |

Source: the nanobody polyreactivity screen of Harvey et al. (2022)
